From PMC5489123 (Journal of molecular biology, 2010)
Ends that are not written are not given here. * marks the point of attachment. Dansyl = CN(C)c1cccc2c(S(=O)(=O)*)cccc12

Tests used:
Tiam1 PDZ domain [1] = molecular target: T1, Tiam1 PDZ domain (Homo sapiens, UniProt Q13009); experiment: NMR chemical shift titration of N-acetylated peptides; type: binding; details: Kd (Model)/Kd (peptide); both Kd by NMR titration
Tiam1 PDZ domain [2] = molecular target: T1, Tiam1 PDZ domain; experiment: Fluorescence anisotropy binding assay of dansylated peptides
[3] = molecular target: T2, Tiam1 PDZ domain (residues 841-930) (human, UniProt Q13009 841-930); experiment: NMR titration
T2 sequence (Q13009 841-930): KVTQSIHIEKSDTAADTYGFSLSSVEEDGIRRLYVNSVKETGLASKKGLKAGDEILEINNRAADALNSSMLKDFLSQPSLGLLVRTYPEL

[4] = molecular target: T2, Tiam1 PDZ domain (residues 841-930); experiment: fluorescence polarisation
[5] = molecular target: T2, Tiam1 PDZ domain (residues 841-930); experiment: fluorescence polarisation; remark: listed apart in the source

T1 sequence (Q13009 841-930): as above

Molecule: Ac-NKDKEYYV [Neurexin1]
- Fold versus Model (Tiam1 PDZ domain [1]): 0.05
- Kd (Tiam1 PDZ domain [2]): > 100 µM

B1: Model Tiam1-binding peptide, N-terminally acetylated (Ac-SSRKEYYA) (peptide)
peptide: Ac-SSRKEYYA
- Kd [3]: 112 ± 15 µM

B2: Syndecan1 C-terminal peptide (residues 303-310), N-terminally dansylated (dan-TKQEEFYA) (peptide)
peptide: Dansyl-TKQEEFYA
- Kd [4]: 26.9 ± 0.9 µM

B3: Syndecan1(A→F) peptide, dansylated (dan-TKQEEFYF) (peptide)
peptide: Dansyl-TKQEEFYF
- Kd [4]: 55.7 ± 3.6 µM

B4: Caspr4 C-terminal peptide (residues 1301-1308), N-terminally dansylated (dan-ENQKEYFF) (peptide)
peptide: Dansyl-ENQKEYFF
- Kd [4]: 16.8 ± 5.4 µM

B5: Caspr4(F→A) peptide, dansylated (dan-ENQKEYFA) (peptide)
peptide: Dansyl-ENQKEYFA
- Kd [4]: 64.8 ± 5.9 µM

B6: Neurexin-1 C-terminal peptide (residues 1470-1477), N-terminally acetylated (Ac-NKDKEYYV) (peptide)
peptide: Ac-NKDKEYYV
- Kd [3]: 2400 ± 250 µM

B7: Model Tiam1-binding peptide, N-terminally dansylated (peptide)
peptide: Dansyl-SSRKEYYA
- Kd [5]: > 100 µM

B8: Neurexin-1 C-terminal peptide (residues 1470-1477), N-terminally dansylated (peptide)
peptide: NKDKEYYV-OH
modifications: not fully specified (N-terminus)
- Kd [5]: > 100 µM
